Measurements from publication PMC8660775.

T1: Adiponectin receptor 1 (ADIPOR1), endogenous in iPSC-derived RPE (human (endogenous in iPSC-derived RPE)) (UniProt Q96A54)
T1 sequence: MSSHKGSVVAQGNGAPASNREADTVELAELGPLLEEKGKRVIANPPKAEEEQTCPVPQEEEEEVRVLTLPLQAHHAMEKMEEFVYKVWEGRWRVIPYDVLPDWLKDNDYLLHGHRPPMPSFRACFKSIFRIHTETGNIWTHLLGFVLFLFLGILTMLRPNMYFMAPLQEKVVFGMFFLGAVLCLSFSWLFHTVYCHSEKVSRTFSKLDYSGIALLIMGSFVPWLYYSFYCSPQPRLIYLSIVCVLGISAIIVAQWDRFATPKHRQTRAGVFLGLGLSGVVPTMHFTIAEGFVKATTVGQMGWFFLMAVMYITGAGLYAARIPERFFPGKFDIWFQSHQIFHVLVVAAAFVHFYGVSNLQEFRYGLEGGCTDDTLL


Target: T1, Adiponectin receptor 1 (ADIPOR1), endogenous in iPSC-derived RPE (human (endogenous in iPSC-derived RPE))

| pAMPK (pT172) levels by ELISA in healthy-iRPE in serum-deprived medium, 0.2 µg/mL gCTRP5 for 30 min | pAMPK (pT172) levels by ELISA in healthy-iRPE in serum-free medium, recombinant full-length CTRP5 at 0.2, 2 and 25 µg/mL | Molecule |
| --- | --- | --- |
| 20 % decrease |  | recombinant CTRP5 globular domain (domain or fragment) |
|  | 50 % reduction | recombinant CTRP5 full length (ligand) SPPLDDNKIPSLCPGHPGLPGTPGHHGSQGLPGRDGRDGRDGAPGAPGEKGEGGRPGLPGPRGDPGPRGEAGPAGPTGPAGECSVPPRSAFSAKRSESRVPPPSDAPLPFDRVLVNEQGHYDAVTGKFTCQVPGVYYFAVHATVYRASLQFDLVKNGESIASFFQFFGGWPKPASLSGGAMVRLEPEDQVWVQVGVGDYIGIYASIKTDSTFSGFLVYSDWHSSPVFA |
